Test results: US20170145112A1 (Genentech, published 2017)

Key:
[1] = target: T1, Human complement Factor D, mature (human, UniProt P00746 27-253); assay: cell-based or functional assay
Target sequence in this assay (P00746 27-253): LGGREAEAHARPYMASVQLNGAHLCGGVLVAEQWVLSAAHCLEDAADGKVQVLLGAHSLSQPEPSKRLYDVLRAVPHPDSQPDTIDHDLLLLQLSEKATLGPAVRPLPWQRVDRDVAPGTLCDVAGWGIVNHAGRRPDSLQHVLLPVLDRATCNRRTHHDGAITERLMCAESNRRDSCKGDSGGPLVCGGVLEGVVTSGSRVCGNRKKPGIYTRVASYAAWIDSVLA

[2] = target: T1, Human complement Factor D, mature; assay: SPR (Biacore T200): Fab captured with anti-huFab kit, human Factor D injected, 25 C, 1:1 model;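 note: sensorgrams were corrected by subtracting a blank injection of running buffer before fitting kinetic and affinity constants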
Target sequence in this assay (P00746 27-253): as above
Experimental: (§1) Kinetics and binding constant KD for Factor D binding to immobilized hu20D12 versions was determined by surface plasmon resonance (SPR) measurements on a Biacore®T200 instrument. […] After subtraction of the sensorgram observed for injection of running buffer, data were analyzed according to a 1:1 model using BiaEval software v4.1 (GE Healthcare) to extract the kinetics and affinity constants.

[3] = target: T1, Human complement Factor D, mature; assay: SPR, Fab captured by anti-huFab, human Factor D injected
[4] = target: T2, Cynomolgus monkey complement Factor D (cynomolgus monkey, UniProt P00746 26-253 (human entry)); assay: SPR, cynomolgus monkey factor D
T2 construct: also called cyfD; cFD
T2 chain: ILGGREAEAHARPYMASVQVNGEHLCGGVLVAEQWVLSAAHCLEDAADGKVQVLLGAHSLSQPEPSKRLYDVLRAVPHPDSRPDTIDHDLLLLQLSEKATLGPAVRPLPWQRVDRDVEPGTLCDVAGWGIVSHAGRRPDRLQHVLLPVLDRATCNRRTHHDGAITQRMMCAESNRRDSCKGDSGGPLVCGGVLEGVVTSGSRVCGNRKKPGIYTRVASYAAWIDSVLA

[5] = target: T1, Human complement Factor D, mature; assay: cell-based or functional assay; remark: listed apart in the source
[6] = target: T1, Human complement Factor D, mature; assay: SPR, at the limit of detection
Target sequence in this assay (P00746 27-253): as the sequence (P00746 27-253) above
Experimental: as §1

- IC50, TR-FRET assay of Factor D (50 pM) cleavage of factor B [1]: 32 pM
- Kd [2]: < 0.01 nM
- koff [2]: 8.1e-05 s⁻¹
- kon [2]: 1.2e+07 M⁻¹ s⁻¹
- fold improvement in binding relative to hu20D12.v2.0 [3]: ≥ 4 fold
- Kd [4]: 0.017 nM
- fold improvement of affinity relative to hu20D12.v2.0 [4]: ~10 fold
- fold improvement of affinity relative to lampalizumab [4]: 2 fold
- FRET IC50 (TR-FRET assay of Factor D-dependent factor B activation), value 1 of 2 in the cell [5]: 0.033 nM
- FRET IC50 (TR-FRET assay of Factor D-dependent factor B activation), value 2 of 2 in the cell [5]: 0.032 nM
- Kd [6]: ~0.01 nM
B1: hu20D12.v2.1 Fab (Fab, V domains shown)
VH: EVQLVQSGAEVKKPGASVKVSCKASGYTFTSYYMYWVRQAPGQGLEWIGEINPTSGGTNFNEKFKSRATLTVDTSTSTAYLELSSLRSEDTAVYYCAREGGFAYWGQGTLVTVSS
VL: DIQMTQSPSSLSASVGDRVTITCKASQNVDTDVAWFQQKPGKAPKGLIRSASSRYSGVPSRFSGSGSGTDFTLTISSLQPEDFATYYCQQYNNYPLTFGQGTKVEIKR
